# Assay results published in patent publication US20130172262A1 (ALPHABETA, published 2013).
# B1: recombinant human Bri2(90-236) (other, not shown: small tags and cut ends)
# chain: GIKYIKDDVILNEPSADAPAALYQTIEENIKIFEEEEVEFISVPVPEFADSDPANIVHDFNKKLTAYLDLNLDKCYVIPLNTSIVMPPRNLLELLINIKAGTYLPQSYLIHEHMVITDRIENIDHLGFFIYRLCHDKETYKLQRRET
# Columns and labels:
# [1] = biological target: B1; test: ESI-MS
# Method: Protein and peptides were mixed at 22° C. directly before analysis at a final protein concentration of 20 μM and a final peptide concentration of 50 μM. Data was acquired using a QTOF Ultima API mass spectrometer (Waters, Milford, Mass., USA) equipped with a Z-spray source operated in the positive-ion mode. Samples were introduced via nano-electrospray using metal-plated borosilicate glass capillary needles (Proxeon, Denmark). The source temperature was 80° C., the capillary voltage 1.7 kV, and the cone and RF lens 1 potentials were 100 and 38 V, respectively. The mass spectrometer was operated in single-reflector mode at a resolution of 10 000 (full width half maximum definition), and the mass scale was calibrated using myoglobin. Scans were acquired at a rate of 1 scan per 2 sec between 500 and 4000 m/z. The collision gas was argon at 5.2×10⁻⁵ mbar. Mass spectra were smoothed using the Waters MassLynx software.
# Mass spectra were recorded to investigate the presence and stoichiometry of protein-peptide complexes in the gas phase.
# [2] = biological target: human Aβ1-40 peptide (human); test: cell-based or functional assay
# Sequence of human Aβ1-40 peptide (human) (peptide, as listed by the source): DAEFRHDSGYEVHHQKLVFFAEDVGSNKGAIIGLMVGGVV
binding result [1],"fold prolongation of the half time of Aβ1-40 aggregation, ThT fluorescence [2]",Binder
binds,,H-KFFEYNGKKFFE-OH (also called synthetic peptide)
,~4.5 times,B1
